For assay [1], the target named is T1, human Natriuretic Peptide Receptor 1 (hNPR1) (human, UniProt P16066 33-473, limits assumed).
T1 construct: pannings used NPR1-hFc; also called NPR1-hFc
T1 sequence: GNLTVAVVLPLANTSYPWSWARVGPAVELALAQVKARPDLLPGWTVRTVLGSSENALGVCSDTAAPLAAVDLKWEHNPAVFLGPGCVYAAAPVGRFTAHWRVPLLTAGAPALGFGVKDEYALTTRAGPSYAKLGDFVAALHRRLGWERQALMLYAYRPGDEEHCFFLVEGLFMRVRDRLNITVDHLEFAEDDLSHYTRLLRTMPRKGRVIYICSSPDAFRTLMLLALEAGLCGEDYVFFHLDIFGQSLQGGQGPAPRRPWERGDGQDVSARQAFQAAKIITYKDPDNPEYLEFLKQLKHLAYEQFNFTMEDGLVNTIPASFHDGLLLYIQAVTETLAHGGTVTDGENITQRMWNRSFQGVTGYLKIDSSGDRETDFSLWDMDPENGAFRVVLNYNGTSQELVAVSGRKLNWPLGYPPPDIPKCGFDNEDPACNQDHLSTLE
Kind of assay: Octet, FabCys.

Assay [2] has as its target T2, hNPR1-ANP complex (human, UniProt P01160 124-151, limits assumed).
T2 construct: hNPR1 antigen in the presence of ANP; also called hNPR1 + 100 nM ANP
T2 sequence: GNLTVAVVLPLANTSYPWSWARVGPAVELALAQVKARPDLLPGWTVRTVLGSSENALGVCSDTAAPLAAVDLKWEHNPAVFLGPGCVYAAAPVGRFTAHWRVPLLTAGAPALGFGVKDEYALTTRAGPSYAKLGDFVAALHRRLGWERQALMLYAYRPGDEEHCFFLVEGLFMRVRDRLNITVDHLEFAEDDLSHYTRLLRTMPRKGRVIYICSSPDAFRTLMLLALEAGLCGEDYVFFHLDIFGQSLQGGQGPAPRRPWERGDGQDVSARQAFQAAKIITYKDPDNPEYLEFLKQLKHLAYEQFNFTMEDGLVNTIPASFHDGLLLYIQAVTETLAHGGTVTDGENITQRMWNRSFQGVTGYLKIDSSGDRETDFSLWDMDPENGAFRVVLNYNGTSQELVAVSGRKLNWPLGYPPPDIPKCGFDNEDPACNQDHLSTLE
T2 sequence (peptide): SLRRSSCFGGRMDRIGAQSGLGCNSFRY
Kind of assay: Octet, FabCys.

Assay [3] has as its target T1, human Natriuretic Peptide Receptor 1 …. Kind of assay: SET, FabCys.
In assay [4] the target is T2, hNPR1-ANP complex. As to the kind of experiment: SET, FabCys.
Assay [5] concerns the target T3, rat NPR1 (rNPR1) (rat, UniProt P18910 29-469, limits assumed).
T3 construct: Soluble antigen
T3 sequence: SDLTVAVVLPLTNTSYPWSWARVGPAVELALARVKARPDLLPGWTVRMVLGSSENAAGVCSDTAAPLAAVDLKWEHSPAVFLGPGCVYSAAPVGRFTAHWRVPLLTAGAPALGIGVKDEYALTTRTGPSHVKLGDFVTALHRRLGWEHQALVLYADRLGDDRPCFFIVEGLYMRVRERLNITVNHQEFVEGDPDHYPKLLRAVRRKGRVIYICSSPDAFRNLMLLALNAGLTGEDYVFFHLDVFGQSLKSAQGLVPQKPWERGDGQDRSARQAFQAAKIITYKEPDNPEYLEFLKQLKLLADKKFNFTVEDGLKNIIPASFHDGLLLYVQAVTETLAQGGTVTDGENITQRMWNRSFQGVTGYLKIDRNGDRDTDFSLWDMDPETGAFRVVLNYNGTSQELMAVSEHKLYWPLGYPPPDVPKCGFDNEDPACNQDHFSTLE
As to the kind of experiment: SET, FabCys.

Assay [6] deals with T4, rNPR1-ANP complex (rat, UniProt P01160 124-151 (human entry), limits assumed).
T4 construct: rNPR1 antigen in the presence of ANP; also called rNPR1 + 100 nM ANP
T4 sequence: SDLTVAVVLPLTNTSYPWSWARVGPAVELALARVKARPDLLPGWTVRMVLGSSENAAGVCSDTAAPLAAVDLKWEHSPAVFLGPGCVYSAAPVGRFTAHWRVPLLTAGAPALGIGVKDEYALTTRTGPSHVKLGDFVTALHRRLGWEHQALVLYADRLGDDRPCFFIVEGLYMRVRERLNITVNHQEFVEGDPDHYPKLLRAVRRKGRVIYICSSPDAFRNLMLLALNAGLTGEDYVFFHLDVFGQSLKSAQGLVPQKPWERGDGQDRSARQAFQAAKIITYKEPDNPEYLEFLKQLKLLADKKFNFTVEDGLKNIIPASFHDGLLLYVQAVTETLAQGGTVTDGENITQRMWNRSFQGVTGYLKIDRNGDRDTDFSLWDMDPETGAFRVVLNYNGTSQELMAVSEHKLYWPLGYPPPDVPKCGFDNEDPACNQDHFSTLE
T4 sequence (peptide): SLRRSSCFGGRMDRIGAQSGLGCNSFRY
Kind of assay: SET, FabCys.

Assay [7] concerns the target T4, rNPR1-ANP complex. Kind of assay: Octet, FabCys. In general terms: Biolayer interferometry detects binding as a change in optical thickness at a sensor tip.

B1: ZZ15 (FabCys format) (Fab, V domains shown)
VH: EVQLLESGGGLVQPGGSLRLSCAASGFTFASYAITWVRQAPGKGLEWVSTISGSGVYTYYAESVKGRFTISRDNSKNTLYLQMNSLRAEDTAVYYCARPYLGDRRSYGFDHWGQGTLVTVSS
VL: QSALTQPASVSGSPGQSITISCTGTSSDVGSYNLVSWYQQHPGKAPKLMIYEGSKRPSGVSNRFSGSKSGNTASLTISGLQAEDEADYYCSSYGFHIVVVVFGGGTKLTVL
notes: Monovalent FabCys
By Kd is commonly meant the constant that tells how readily two partners part at equilibrium. Lower therefore signals tighter binding. Consider B1, for which the Kd in assay [1] came to 0.26 nM; in assay [2], 0.19 nM; in assay [3], 0.053 nM; in assay [4], 0.074 nM.

B2: ZZ16 (FabCys format) (Fab, V domains shown)
VH: EVQLLESGGGLVQPGGSLRLSCAASGFTFGTYAMTWVRQAPGKGLEWVSSISASGYYANYAGSVKGRFTISRDNSKNTLYLQMNSLRAEDTAVYYCARPYLGDRRSYGFDHWGQGTLVTVSS
VL: QSALTQPASVSGSPGQSITISCTGTSSDVGSYNLVSWYQQHPGKAPKLMIYEGSKRPSGVSNRFSGSKSGNTASLTISGLQAEDEADYYCSSYGFHIVVVVFGGGTKLTVL
notes: Monovalent FabCys
With B2, the Kd turned out to be 0.14 nM in assay [1]; 0.11 nM in assay [2]; 0.04 nM in assay [3]; 62 nM in assay [5]; 51 nM in assay [6]; 0.034 nM in assay [4].

B3: ZZ12 (FabCys format) (Fab, V domains shown)
VH: EVQLVESGGGLVQPGGSLRLSCAASGFSFSKYYLNWVRQAPGKGLEWVASIHQQAHEKKYVESVKGRFTISRDNAKNSLYLQMNSLRAEDTAVYYCARSLRRRSTEHAGFDVWGQGTLVTVSS
VL: DIQMTQSPSSLSASVGDRVTITCRASQGISNYLAWYQQKPGKVPKLLIYAASTLQSGVPSRFSGSGSGTDFTLTISSLQPEDVATYYCQQADKFPYTFGQGTKVEIK
notes: Monovalent FabCys
With B3, the Kd in assay [7] came out at 0.1 nM; in assay [2], 0.04 nM; in assay [3], 6.7 nM; in assay [5] it was 2.1 nM; in assay [6], 1.4 nM; in assay [4], 0.32 nM.
